Results as given in patent publication US20090220535A1 (REGENTS OF THE UNIVERSITY OF COLORADO, published 2009).
Substitutions are numbered along the chain they refer to. Names may count otherwise.

T1: HPV11 L1 protein (human papillomavirus type 11, UniProt P04012 1-501)
T1 construct: Full-length HPV11 L1 DNA amplified from pVL11L1
T1 sequence: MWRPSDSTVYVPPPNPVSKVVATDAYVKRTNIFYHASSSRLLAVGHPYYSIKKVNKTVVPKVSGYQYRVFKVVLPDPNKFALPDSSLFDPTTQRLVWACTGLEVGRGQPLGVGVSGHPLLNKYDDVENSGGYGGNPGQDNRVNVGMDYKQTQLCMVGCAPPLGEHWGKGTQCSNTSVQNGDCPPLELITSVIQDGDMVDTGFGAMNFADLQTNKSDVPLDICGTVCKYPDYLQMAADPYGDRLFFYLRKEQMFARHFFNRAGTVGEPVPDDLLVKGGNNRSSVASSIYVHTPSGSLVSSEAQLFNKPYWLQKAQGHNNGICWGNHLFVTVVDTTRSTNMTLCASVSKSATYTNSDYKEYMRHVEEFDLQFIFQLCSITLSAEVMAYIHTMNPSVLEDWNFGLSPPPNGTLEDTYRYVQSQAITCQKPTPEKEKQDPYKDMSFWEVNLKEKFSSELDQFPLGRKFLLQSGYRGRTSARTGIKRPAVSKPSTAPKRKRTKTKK

B1: HPV11 GST-L2 (313-455) (other)
chain: GARIHYFQDISPVTQAAEEIELHPLVAAENDTFDIYAEPFDPIPDPVQHSVTQSYLTSTPNTLSQSWGNTTVPLSIPSDWFVQSGPDITFPTASMGTPFSPVTPALPTGPVFITGSDFYLHPTWYFARRRRKRIPLFFTDVAA
notes: Carboxy-terminal third of HPV11 L2; also called pXA/BN-HPV11L2/313-455; HPV GST=L2(313455); not shown: glutathione-S-transferase (GST) fusion partner from vector pXA/BN (multiple cloning site of pGEX-4T-2); thrombin-cleavab
B2: HPV11 GST-L2 fusion protein, L2 amino acids 157-455 (other)
chain: PLFTEPSVIQPQPPVEASGHILISAPTITSQHVEDIPLDTFVVSSSDSGPTSSTPLPRAFPRPRVGLYSRALQQVQVTDPAFLSTPQRLVTYDNPVYEGEDVSLQFTHESIHNAPDEAFMDIIRLHRPAITSRRGLVRFSRIGQRGSMYTRSGQHIGARIHYFQDISPVTQAAEEIELHPLVAAENDTFDIYAEPFDPIPDPVQHSVTQSYLTSTPNTLSQSWGNTTVPLSIPSDWFVQSGPDITFPTASMGTPFSPVTPALPTGPVFITGSDFYLHPTWYFARRRRKRIPLFFTDVAA
notes: also called pXA/BN-HPV11L2/157-455; not shown: glutathione-S-transferase (GST) fusion partner from vector pXA/BN (multiple cloning site of pGEX-4T-2); thrombin-cleavab
B3: HPV11 GST-L2 fusion protein, L2 amino acids 1-309 (other)
chain: MKPRARRRKRASATQLYQTCKATGTCPPDVIPKVEHTTIADQILKWGSLGVFFGGLGIGTGAGSGGRAGYIPLGSSPKPAITGGPAARPPVLVEPVAPSDPSIVSLIEESAIINAGAPEVVPPTQGGFTITSSESTTPAILDVSVTNHTTTSVFQNPLFTEPSVIQPQPPVEASGHILISAPTITSQHVEDIPLDTFVVSSSDSGPTSSTPLPRAFPRPRVGLYSRALQQVQVTDPAFLSTPQRLVTYDNPVYEGEDVSLQFTHESIHNAPDEAFMDIIRLHRPAITSRRGLVRFSRIGQRGSMYTRSG
notes: also called pXA/BN-HPV11L2/1-309; not shown: glutathione-S-transferase (GST) fusion partner from vector pXA/BN (multiple cloning site of pGEX-4T-2); thrombin-cleavab
B4: HPV11 GST-L2 fusion protein, L2 amino acids 396-439 (other)
chain: SGPDITFPTASMGTPFSPVTPALPTGPVFITGSDFYLHPTWYFA
notes: also called pXA/BN-HPV11L2/396-439; not shown: glutathione-S-transferase (GST) fusion partner from vector pXA/BN (multiple cloning site of pGEX-4T-2); thrombin-cleavab
B5: HPV11 GST-L2 fusion protein, L2 amino acids 313-400 (other)
chain: GARIHYFQDISPVTQAAEEIELHPLVAAENDTFDIYAEPFDPIPDPVQHSVTQSYLTSTPNTLSQSWGNTTVPLSIPSDWFVQSGPDI
notes: also called pXA/BN-HPV11L2/313-400; not shown: glutathione-S-transferase (GST) fusion partner from vector pXA/BN (multiple cloning site of pGEX-4T-2); thrombin-cleavab
B6: HPV11 GST-L2 fusion protein, L2 amino acids 396-455 (other)
chain: SGPDITFPTASMGTPFSPVTPALPTGPVFITGSDFYLHPTWYFARRRRKRIPLFFTDVAA
notes: also called pXA/BN-HPV11L2/396-455; not shown: glutathione-S-transferase (GST) fusion partner from vector pXA/BN (multiple cloning site of pGEX-4T-2); thrombin-cleavab
B7: HPV11 GST-L2 fusion protein, L2 amino acids 157-309 (other)
chain: PLFTEPSVIQPQPPVEASGHILISAPTITSQHVEDIPLDTFVVSSSDSGPTSSTPLPRAFPRPRVGLYSRALQQVQVTDPAFLSTPQRLVTYDNPVYEGEDVSLQFTHESIHNAPDEAFMDIIRLHRPAITSRRGLVRFSRIGQRGSMYTRSG
notes: also called pXA/BN-HPV11L2/157-309; not shown: glutathione-S-transferase (GST) fusion partner from vector pXA/BN (multiple cloning site of pGEX-4T-2); thrombin-cleavab
B8: HPV11 GST-L2 fusion protein, L2 amino acids 346-455 (other)
chain: DIYAEPFDPIPDPVQHSVTQSYLTSTPNTLSQSWGNTTVPLSIPSDWFVQSGPDITFPTASMGTPFSPVTPALPTGPVFITGSDFYLHPTWYFARRRRKRIPLFFTDVAA
notes: also called pXA/BN-HPV11L2/346-455; not shown: glutathione-S-transferase (GST) fusion partner from vector pXA/BN (multiple cloning site of pGEX-4T-2); thrombin-cleavab
B9: HPV11 GST-L2 fusion protein, L2 amino acids 346-439 (other)
chain: DIYAEPFDPIPDPVQHSVTQSYLTSTPNTLSQSWGNTTVPLSIPSDWFVQSGPDITFPTASMGTPFSPVTPALPTGPVFITGSDFYLHPTWYFA
notes: also called pXA/BN-HPV11L2/346-439; not shown: glutathione-S-transferase (GST) fusion partner from vector pXA/BN (multiple cloning site of pGEX-4T-2); thrombin-cleavab
B10: HPV11 GST-L2 fusion protein, L2 amino acids 1-455 (full length) (other)
chain: MKPRARRRKRASATQLYQTCKATGTCPPDVIPKVEHTTIADQILKWGSLGVFFGGLGIGTGAGSGGRAGYIPLGSSPKPAITGGPAARPPVLVEPVAPSDPSIVSLIEESAIINAGAPEVVPPTQGGFTITSSESTTPAILDVSVTNHTTTSVFQNPLFTEPSVIQPQPPVEASGHILISAPTITSQHVEDIPLDTFVVSSSDSGPTSSTPLPRAFPRPRVGLYSRALQQVQVTDPAFLSTPQRLVTYDNPVYEGEDVSLQFTHESIHNAPDEAFMDIIRLHRPAITSRRGLVRFSRIGQRGSMYTRSGQHIGARIHYFQDISPVTQAAEEIELHPLVAAENDTFDIYAEPFDPIPDPVQHSVTQSYLTSTPNTLSQSWGNTTVPLSIPSDWFVQSGPDITFPTASMGTPFSPVTPALPTGPVFITGSDFYLHPTWYFARRRRKRIPLFFTDVAA
notes: also called pXA/BN-HPV11 L2; not shown: glutathione-S-transferase (GST) fusion partner from vector pXA/BN (multiple cloning site of pGEX-4T-2); thrombin-cleavab
B11: HPV11 GST-L2 fusion protein, L2 amino acids 1-156 (other)
chain: MKPRARRRKRASATQLYQTCKATGTCPPDVIPKVEHTTIADQILKWGSLGVFFGGLGIGTGAGSGGRAGYIPLGSSPKPAITGGPAARPPVLVEPVAPSDPSIVSLIEESAIINAGAPEVVPPTQGGFTITSSESTTPAILDVSVTNHTTTSVFQN
notes: also called pXA/BN-HPV11L2/1-156; not shown: glutathione-S-transferase (GST) fusion partner from vector pXA/BN (multiple cloning site of pGEX-4T-2); thrombin-cleavab
B12: HPV6b GST-L2 fusion protein, L2 amino acids 316-459 (other)
chain: RIHYFYDISPIAQAAEEIEMHPLVAAQDDTFDIYAESFEPGINPTQHPVTNISDTYLTSTPNTVTQPWGNTTVPLSLPNDPFLQSGPDITFPTAPMGTPFSPVTPALPTGPVFITGSGFYLHPAWYFARKRRKRIPLFFSDVAA
notes: also called HPV6b L2; not shown: glutathione-S-transferase (GST) fusion partner from vector pXA/BN (multiple cloning site of pGEX-4T-2); thrombin-cleavab
B13: HPV33 GST-L2 fusion protein, L2 amino acids 319-467 (other)
chain: GARIHYYQDLSPIVPLDHTVPNEQYELQPLHDTSTSSYSINDGLYDVYADDVDNVHTPMQHSYSTFATTRTSNVSIPLNTGFDTPVMSGPDIPSPLFPTSSPFVPISPFFPFDTIVVDGADFVLHPSYFILRRRRKRFPYFFTDVRVAA
notes: also called HPV33 L2; not shown: glutathione-S-transferase (GST) fusion partner from vector pXA/BN (multiple cloning site of pGEX-4T-2); thrombin-cleavab
B14: HPV16 GST-L2 fusion protein, L2 amino acids 321-473 (other)
chain: GAKVHYYYDLSTIDPAEEIELQTITPSTYTTTSHAASPTSINNGLYDIYADDFITDTSTTPVPSVPSTSLSGYIPANTTIPFGGAYNIPLVSGPDIPINITDQAPSLIPIVPGSPQYTIIADAGDFYLHPSYYMLRKRRKRLPYFFSDVSLAA
notes: also called HPV16 L2; not shown: glutathione-S-transferase (GST) fusion partner from vector pXA/BN (multiple cloning site of pGEX-4T-2); thrombin-cleavab
B15: HPV11 GST-L2 (313-455) mutant P413A (other)
chain: B1 chain with P101A
notes: also called pXA/BN-HPV11L2/313-455/P413A; not shown: N-terminal GST fusion partner and its thrombin linker (vector pXA/BN with the pGEX-4T-2 cloning site)
B16: HPV11 GST-L2 (313-455) mutant P419A (other)
chain: B1 chain with P107A
notes: also called pXA/BN-HPV11L2/313-455/P419A; not shown: N-terminal GST fusion partner and its thrombin linker (vector pXA/BN with the pGEX-4T-2 cloning site)
B17: HPV11 GST-L2 (313-455) double mutant AL417-418EE (other)
chain: B1 chain with A105E, L106E
notes: The text says 'changed to glutamines' but prints EE and speaks of negatively charged residues; also called pXA/BN-HPV11L2/313-455/AL417418EE; not shown: N-terminal GST fusion partner and its thrombin linker (vector pXA/BN with the pGEX-4T-2 cloning site)
B18: HPV11 GST-L2 (313-455) mutant P416A (other)
chain: B1 chain with P104A
notes: also called pXA/BN-HPV11L2/313-455/P416A; not shown: N-terminal GST fusion partner and its thrombin linker (vector pXA/BN with the pGEX-4T-2 cloning site)
B19: HPV11 GST-L2 (313-455) mutant A417E (other)
chain: B1 chain with A105E
notes: also called pXA/BN-HPV11L2/313-455/A417E; not shown: N-terminal GST fusion partner and its thrombin linker (vector pXA/BN with the pGEX-4T-2 cloning site)
B20: HPV11 GST-L2 (313-455) mutant L418E (other)
chain: B1 chain with L106E
notes: not shown: N-terminal GST fusion partner and its thrombin linker (vector pXA/BN with the pGEX-4T-2 cloning site)
B21: HPV1a GST-L2 fusion protein, L2 amino acids 347-507 (other)
chain: GARTHFFYDLSSIAPEDSIELLPLGEHSQTTVISSNLGDTAFIQGETAEDDLEVISLETPQLYSEEELLDTNESVGENLQLTITNSEGEVSILDLTQSRVRPPFGTEDTSLHVYYPNSSKGTPIINPEESFTPLVIIALNNSTGDFELHPSLRKRRKRAYV
notes: range 347-507; also called HPV1a L2; not shown: glutathione-S-transferase (GST) fusion partner from vector pXA/BN (multiple cloning site of pGEX-4T-2); thrombin-cleavab
B22: BPV1 GST-L2 fusion protein, L2 amino acids 316-469 (other)
chain: GPQLHVRYSLSTIHEDVEAIPYTVDENTQGLAFVPLHEEQAGFEEIELDDFSETHRLLPQNTSSTPVGSGVRRSLIPTQEFSATRPTGVVTYGSPDTYSASPVTDPDSTSPSLVIDDTTTTPIIIIDGHTVDLYSSNYTLHPSLLRKRKKRKHA
notes: range 316-469; Cloned as a BamHI/XhoI fragment; also called BPV1 L2; not shown: glutathione-S-transferase (GST) fusion partner from vector pXA/BN (multiple cloning site of pGEX-4T-2); thrombin-cleavab

target: T1, HPV11 L1 protein; assay: densitometry after size exclusion chromatography of the complex

Molecule | L1:L2
B1 | ~5 L1:L2 ratio

target: T1, HPV11 L1 protein; assay: co-expression in E. coli, glutathione sepharose eluate, SDS-PAGE
Method: The lysates were then treated with 10 units/ml DNAse I in the presence of 5 mM MgCl2 for 30 minutes. […] Lysates were briefly sonicated, then centrifuged at 17,000 G for one hour and the supernatant was passed over a 10 mL bed volume glutathione sepharose column. […] The columns were washed with buffer L (40 mM Tris-Cl, pH 8.0, 0.2 M NaCl, 1 mM EDTA, 2 mM DTT) until no protein was detectable in the wash (approximately 20 bed volumes). To purify L1+GST-L2 complexes, bound proteins were eluted with 10 mM reduced glutathione in buffer L. The eluates were concentrated using Centriplus concentrators (Amicon). To further purify L1+L2 complexes from contaminating bacterial proteins, free L2 and L2 degradation products, eluted proteins were subjected to size exclusion fast pressure chromatography (FPLC) using a HiLoad Superdex 200 gel filtration column (Pharmacia). FPLC fractions containing complexes were pooled and further concentrated as outlined above. Protein complexes were analyzed by SDS-PAGE followed by Coomassie blue staining or immunoblotting. For densitometric analysis on Coomassie-stained gels, images were captured using a fluor-S MultiImager (Bio-Rad) with Quantity One software (BioRad) and quantitated using ImageQuant software (Molecular Dynamics). Using this strategy, L1 will be present upon elution from glutathione-sepharose only if it is bound to GST-L2.
The ability of each L2 protein to bind HPV11 L1 was determined by the presence or absence of L1 in the eluate from the glutathione sepharose column as measured by SDS-PAGE.

Molecule | binding result
B2 | binds
B3 | no binding
B4 | binds
B5 | no binding
B6 | binds
B7 | no binding
B8 | binds
B9 | binds
B10 | binds
B11 | no binding

target: T1, HPV11 L1 protein; assay: co-expression, glutathione sepharose eluate, densitometry of Coomassie-stained SDS-PAGE

Molecule | L1:L2
B1 | > 1 L1:L2 ratio
B12 | > 1 L1:L2 ratio
B13 | > 1 L1:L2 ratio
B14 | > 1 L1:L2 ratio

target: T1, HPV11 L1 protein; assay: co-expression, glutathione sepharose eluate, densitometry

Molecule | L1:L2 | binding result
B1 | 2 L1:L2 ratio | –
B15 | – | binds
B16 | – | binds
B17 | 0.33 L1:L2 ratio | –
B18 | – | binds
B19 | 1 L1:L2 ratio | –
B20 | – | binds

target: T1, HPV11 L1 protein; assay: co-expression in E. coli, glutathione sepharose eluate, immunoblot and Coomassie densitometry

Molecule | binding result
B21 | no binding
B22 | no binding

target: HPV11 L1 protein (human papillomavirus type 11) (UniProt P04012); assay: co-expression, glutathione sepharose eluate, densitometry of Coomassie-stained SDS-PAGE

Molecule | L1:L2
HPV5 GST-L2 fusion protein, L2 amino acids 376-518 (from UniProt P06918 376-518) | < 1 L1:L2 ratio
COPV1 GST-L2 fusion protein, L2 amino acids 360-513 (from UniProt P08515 1-218) | < 1 L1:L2 ratio
HPV12 GST-L2 fusion protein, L2 amino acids 360-518 (from UniProt P08515 1-218) | < 1 L1:L2 ratio

target: T1, HPV11 L1 protein; assay: densitometry of partially purified glutathione sepharose eluates

Molecule | L1:L2
B1 | ~2 L1:L2 ratio
